In assay [1] the target is mouse TNFR2-Fc fusion protein (mouse) (UniProt P25119). As to the kind of experiment: ELISA; TNFR1-Fc or TNFR2-Fc coated at 1 µg/ml in PBS, 4 °C overnight; TNF muteins in 2% skim milk powder in PBS, 1 h RT; detected with anti-TNF clone F6C5 and HRP anti-mouse IgG.
Assay [2] shares this target. As to the kind of experiment: quartz crystal microbalance; mouse TNFR2-Fc chemically immobilised on a carboxyl sensor chip at high density (270 Hz, saturated); muteins 2-32 nM; PBST (PBS, 0.1% Tween 20) pH 7.4, 37 °C; Attana Cell 200.
The target is the same in assay [3]. As to the kind of experiment: quartz crystal microbalance; mouse TNFR2-Fc chemically immobilised on a carboxyl sensor chip at low density (130 Hz, non-saturated); muteins 8-256 nM; PBST (PBS, 0.1% Tween 20) pH 7.4, 37 °C; Attana Cell 200; biphasic curves for p53- and GCN4-sc-mTNFR2.
The target in assay [4] is EHD2-sc-mTNFR2 (not stated | mouse) (UniProt P06804). As to the kind of experiment: SEC; approx. 20 µg protein on BioSep-SEC-S2000 in PBS, 0.5 ml/min; size by standard proteins.
Assay [5] has as its target p53-sc-mTNFR2 (not stated | mouse) (UniProt P04637). Described as above.

As for “EHD2-sc-mTNFR2 (from UniProt P06804 91-235; P06804 91-235; P06804 91-235) (ligand)”, in assay [1], the 50% effective concentration (EC50) worked out at 0.11 nM. In assay [2], the Kd is 0.0615 nM, the koff worked out at 3.74e-05 s⁻¹ and the kon was found to be 607000 M⁻¹ s⁻¹. Also, in assay [3], the Kd was 118 nM, the koff stood at 0.063 s⁻¹ and the kon stood at 533000 M⁻¹ s⁻¹. Moreover, the stoichiometry N in assay [4] was 2.

For the substance “p53-sc-mTNFR2 (from UniProt P04637 320-359; P06804 91-235; P06804 91-235; P06804 91-235) (ligand)”, the EC50 in assay [1] was 0.074 nM. Also, the Kd in assay [2] was found to be 0.0437 nM. In assay [3], this substance gave a Kd1 of 50.9 nM and a Kd2 of 3.97 nM. The substance also came in with a stoichiometry N in assay [5] of 4.

In assay [1], “sc-mTNFR2 (mouse TNFR2-specific (D221N/A223R) single-chain mouse TNF) (from UniProt P06804 91-235; P06804 91-235; P06804 91-235) (ligand)” gave an EC50 of 1.55 nM. For the same substance, in assay [2], the dissociation constant (Kd) came to 0.449 nM, the dissociation rate constant (koff) stood at 0.000399 s⁻¹ and the kon was 808000 M⁻¹ s⁻¹.

Source of the values: publication PMC5529482.
